From patent publication US20160046944, “APTAMER TO IL-17 AND USE THEREOF” (THE UNIVERSITY OF TOKYO, published 2016)

T1: IL-17 (Homo sapiens, UniProt Q16552 Q16552:24-155)
T1 sequence: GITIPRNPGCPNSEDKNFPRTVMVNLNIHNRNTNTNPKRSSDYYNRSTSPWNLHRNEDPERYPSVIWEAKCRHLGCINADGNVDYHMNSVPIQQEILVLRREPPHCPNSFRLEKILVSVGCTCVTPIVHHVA

T2: IL-17 (IL-17A) (Homo sapiens, UniProt Q16552 Q16552:24-155)
T2 sequence: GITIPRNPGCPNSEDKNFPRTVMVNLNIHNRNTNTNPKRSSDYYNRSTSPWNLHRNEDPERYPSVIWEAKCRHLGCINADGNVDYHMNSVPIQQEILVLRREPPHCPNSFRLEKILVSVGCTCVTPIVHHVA

B1: aptamer No. 16 (mixed)
mixed: GGGGUAGCCGGAGGAGTCAGTAAUCGGUACCCC
modifications: 2'-OMe (M), 2'-F (F), PS (S) as marked; uppercase DNA [2'-OMe: 1-5,8,9,11,14,15,22-27,29; 2'-F: 12,18,19,28; PS: 7]
B2: aptamer No. 1 (mixed)
RNA: GGGUAGCCGGAGGAGUCAGUAAUCGGUACCC
modifications: LNA (L), 2'-F (F), PS (S), mc methylcytosine as marked; SEQ ID NO:1 [LNA at 1-3,29-31 (29-31 methylcytosine); 2'-F at 4,7,8,16,17,20,23,24,27; PS at 6,9]
B3: aptamer No. 84 (mixed)
RNA: GGGUAGCCGGAGGAGUCAGUAAUCGGUACCC
modifications: g(M)g(M)g(M)u(M)a(M)g(S)c(M)c(M)Gg(M)a(M)gg(M)a(M)g(S)u(F)c(F)a(F)g(S)u(F)a(M)a(M)u(M)c(M)g(M)g(M)u(M)a(M)c(M)c(M)c(M)
B4: aptamer No. 12 (mixed)
mixed: GGGUAGCCGGAGGAGTCAGTAAUCGGUACCC
modifications: 2'-OMe (M), 2'-F (F) as marked; uppercase DNA [1,2,3,4,7,8,10,11,13,14,17,18,21,22,23,24,25,26,27,28]
B5: aptamer No. 7 (mixed)
RNA: GGGUAGCCGGAGGAGUCAGUAAUCGGUACCC
modifications: 2'-OMe (M), 2'-F (F), PS (S) as marked; uppercase DNA [1,2,3,4,6,7,8,10,11,13,14,16,17,18,20,23,24,25,26,27,28]
B6: aptamer No. 11 (mixed)
mixed: GGGUAGCCGGAGGAGTCAGTAAUCGGUACCC
modifications: 2'-OMe (M), 2'-F (F), PS (S) as marked; uppercase DNA [1,2,3,4,6,7,8,10,11,13,14,17,18,21,23,24,25,26,27,28]
B7: aptamer No. 82 (mixed)
mixed: GGGUAGCCGGAGGAGTCAGTAAUCGGUACCC
modifications: g(M)g(M)g(M)u(M)a(M)g(S)c(M)c(M)Gg(M)a(M)gg(M)a(M)g(S)Tc(F)a(F)g(S)Ta(M)a(M)u(M)c(M)g(M)g(M)u(M)a(M)c(M)c(M)c(M)
B8: aptamer No. 64 (mixed)
mixed: GGGUAGCCGGAGGAGTCAGTAAUCGGUACCC
modifications: g(M)g(M)g(M)u(M)a(M)g(S)c(M)c(M)Gg(M)a(F)gg(M)a(M)g(S)Tc(M)a(F)g(S)Ta(M)a(M)u(M)c(M)g(M)g(M)u(F)a(M)c(M)c(M)c(M)
B9: aptamer No. 75 (mixed)
mixed: GGGUAGCCGGAGGAGTCAGTAAUCGGUACCC
modifications: g(M)g(M)g(M)u(M)a(M)gc(M)c(M)gg(M)a(F)gg(M)a(M)gTc(F)a(F)gTa(M)a(M)u(M)c(M)g(M)g(M)u(F)a(M)c(M)c(M)c(M)
B10: aptamer No. 78 (mixed)
mixed: GGGUAGCCGGAGGAGTCAGTAAUCGGUACCC
modifications: g(M)g(M)g(M)u(M)a(M)gc(M)c(M)Gg(M)a(F)gg(M)a(M)gTc(F)a(F)gTa(M)a(M)u(M)c(M)g(M)g(M)u(M)a(M)c(M)c(M)c(M)
B11: aptamer No. 14 (mixed)
mixed: GGGUAGCCGGAGGAGTCAGTAAUCGGUACCC
modifications: 2'-OMe (M), 2'-F (F) as marked; uppercase DNA [1,2,3,4,6,7,8,10,11,13,14,17,18,21,22,23,24,25,26,27,28]
B12: aptamer No. 86 (mixed)
mixed: GGGUAGCCGGAGGAGTCAGTGAUCGGUACCC
modifications: g(M)g(M)g(M)u(M)a(M)g(S)c(M)c(M)Gg(M)a(M)gg(M)a(M)g(S)Tc(M)a(F)g(S)Tg(M)a(M)u(M)c(M)g(M)g(M)u(M)a(M)c(M)c(M)c(M)
B13: aptamer No. 13 (mixed)
mixed: GGGUAGCCGGAGGAGTCAGTAAUCGGUACCC
modifications: 2'-OMe (M), 2'-F (F) as marked; uppercase DNA; (N) printed, likely (M) [1,2,3,4,7,8,10,11,13,14,17,18,21,23,24,25,26,27,28]
B14: aptamer No. 79 (ssRNA)
RNA: GGGUAGCCGGAGGAGUCAGUAAUCGGUACCC
modifications: g(M)g(M)g(M)u(M)a(M)gc(M)c(M)gg(M)a(F)gg(M)a(M)gu(F)c(F)a(F)gu(F)a(M)a(M)u(M)c(M)g(M)g(M)u(M)a(M)c(M)c(M)c(M)
B15: aptamer No. 66 (mixed)
mixed: GGGUAGCCGGAGGAGTCAGTAAUCGGUACCC
modifications: g(M)g(M)g(M)u(M)a(M)g(S)c(M)c(M)Gg(M)a(F)gg(M)a(M)g(S)Tc(F)a(F)g(S)Ta(M)a(M)u(M)c(M)g(M)g(M)u(M)a(M)c(M)c(M)c(M)
B16: aptamer No. 15 (mixed)
mixed: GGGUAGCCGGAGGAGTCAGTAAUCGGUACCC
modifications: 2'-OMe (M), 2'-F (F) as marked; uppercase DNA [2'-OMe: 1-4,7,8,10,13,14,21,23-26,28; 2'-F: 6,11,17,18,27]
B17: aptamer No. 94 (mixed)
RNA: GGGUAGCCGGAGGAGUCAGUAAUCGGUACCC
modifications: g(M)g(M)g(M)u(M)a(M)g(S)c(M)c(M)Gg(M)a(M)gg(M)a(M)g(S)u(F)c(F)a(F)g(S)u(F)aau(M)c(M)g(M)g(M)u(F)a(M)c(M)c(M)c(M)
B18: aptamer No. 9 (mixed)
mixed: GGGUAGCCGGAGGAGTCAGTAAUCGGUACCC
modifications: 2'-OMe (M), 2'-F (F), PS (S) as marked; uppercase DNA [1,2,3,4,6,7,8,10,11,13,14,17,18,21,22,23,24,25,26,27,28]
B19: aptamer No. 21 (mixed)
mixed: GGGUAGCCGGAGGAGTCAGTAAUCGGTACCC
modifications: 2'-OMe (M), 2'-F (F), PS (S) as marked; uppercase DNA [2'-OMe: 1-4,7,8,10,13,14,23-26,28-31; 2'-F: 17; PS: 6]
B20: aptamer No. 89 (mixed)
mixed: GGGUAGCCGGAGGAGTCAGTAAUCGGUACCC
modifications: g(M)g(M)g(M)u(M)a(M)g(S)c(M)c(M)Gg(M)a(M)gg(M)a(M)g(S)Tc(M)a(F)g(S)Taa(M)u(M)c(M)g(M)g(M)u(M)a(M)c(M)c(M)c(M)
B21: aptamer No. 6 (mixed)
mixed: GGGUAGCCGGAGGAGTCAGTAAUCGGUACCC
modifications: 2'-OMe (M), 2'-F (F), PS (S) as marked; uppercase DNA; (NI) printed, likely (M) [1,2,3,4,5,6,7,8,10,13,14,17,18,21,22,23,24,25,26,27]
B22: aptamer No. 85 (mixed)
RNA: GGGUAGCCGGAGGAGUCAGUAAUCGGUACCC
modifications: g(M)g(M)g(M)u(M)a(M)g(S)c(M)c(M)Gg(M)a(M)gg(M)a(M)g(S)u(F)c(F)a(F)g(S)u(F)a(M)a(M)u(M)c(M)g(M)g(M)u(F)a(M)c(M)c(M)c(M)
B23: aptamer No. 63 (mixed)
mixed: GGGUAGCCGGAGGAGTCAGTAAUCGGUACCC
modifications: g(M)g(M)g(M)u(M)a(M)g(S)c(M)c(M)Gg(M)a(F)gg(M)a(M)g(S)Tc(F)a(F)g(S)Ta(M)a(M)u(M)c(M)g(M)g(M)u(F)a(M)c(M)c(M)c(M)

How the values were obtained:
Conditions in all cases: chain copies: 2
IL-17 [1] = molecular target: T1, IL-17; test: cell_activity; NIH3T3 IL-6 release
Description: First, human IL-17 and the aptamer produced in Example 1-1 were pre-incubated at 37° C. for 30 min, and added to NIH3T3 cell (ATCC, CRL1658) together with mouse TNFα (2 ng/mL). Then, after incubation for 24 hr, the culture supernatant was collected, and the amount of IL-6 was measured by BD Cytometric Bead Array (BD Biosciences). The IL-17 inhibitory action of each aptamer was determined from the amount of IL-6. For comparison with the aptamer of the present invention, a conventionally-known aptamer (aptamer No. 50) against IL-17 was used.

IL-17 [2] = molecular target: T1, IL-17; test: SPR; IL-17R-Fc on chip
Description: Whether aptamers shown by aptamer Nos. 1-49 inhibit the binding of IL-17 and IL-17 receptor was evaluated by the surface plasmon resonance method.
For the measurement, BIAcore2000 manufactured by BIAcore was used. […] As an analyte, IL-17 (100 or 150 nM) and an aptamer (50 or 100 nM) shown by aptamer No. 1-49 were mixed, maintained for 15 min and after that the mixture was flown.

IL-17 (IL-17A) = molecular target: T2, IL-17 (IL-17A); test: cell_activity; IL-6 release, NIH3T3
Description: First, human IL-17 and the aptamer produced in Example 1-2 were pre-incubated at 37° C. for 30 min, and added to NIH3T3 cell (ATCC, CRL1658) together with mouse TNFα (2 ng/mL). Then, after incubation for 24 hr, the culture supernatant was collected, and the production amount of IL-6 was measured by ELISA method described below. The IL-17 inhibitory action of each aptamer was determined from the production amount of IL-6. For comparison with the aptamer of the present invention, a conventionally-known aptamer (aptamer No. 50) against IL-17 was used.
ELISA method for verifying IL-17 inhibitory action of aptamer: A microtiter plate for ELISA was coated with rat anti-mouse IL-6 antibody (BD Biosciences, 2 μg/mL; 100 μL/well) diluted with PBS, and incubated at 4° C. overnight. The next day, the microtiter plate was washed 3 times with PBS/0.05% Tween 20, and applied blocking with PBS/1% BSA (200 μL/well) at room temperature for 2 hr. Then, the plate was washed 3 times with PBS/0.05% Tween 20. Recombinant mouse IL-6 (BD Biosciences; 100 μL/well) serially diluted with PBS/1% BSA/0.05% Tween 20 or culture supernatants (100 μL/well) were added to the plate. After incubation at room temperature for 2 hr, the plate was washed 3 times with PBS/0.05% Tween 20. Then, 100 μL/well of biotin conjugated rat anti-mouse IL-6 antibody (BD Biosciences) was added to the plate at final dilution of 1/500, and the mixture was reacted at room temperature for 1 hr. After washing 3 times with PBS/0.05% Tween 20, 100 μL/well of alkaline phosphatase conjugated streptavidin was added at final dilution of 1/1000. After 30 min at room temperature, the plate was again washed 4 times with PBS/0.05% Tween 20, and a substrate (1-Step PNPP; Thermo Fisher Scientific Inc; 100 μL/well) was added. After 15 min, aqueous sodium hydroxide solution (2N: 50 μL/well) was added to stop the reaction, and the plate was read on a microtiter reader (Bio-Rad) by using a 405 nm filter.

Binder	IC50 (IL-17 [1])	binding signal (IL-17 [2])	IC50 (IL-17 (IL-17A))
B1	0.25 nM	27.9 % IL-17/IL-17R binding remaining	–
B2	1.17 nM	28.6 % IL-17/IL-17R binding remaining	–
B3	–	–	1.04 nM
B4	0.52 nM	24.4 % IL-17/IL-17R binding remaining	–
B5	0.3 nM	18.4 % IL-17/IL-17R binding remaining	–
B6	0.34 nM	16.8 % IL-17/IL-17R binding remaining	–
B7	–	–	0.48 nM
B8	–	–	4.64 nM
B9	–	–	1.33 nM
B10	–	–	1.36 nM
B11	0.5 nM	16.5 % IL-17/IL-17R binding remaining	–
B12	–	–	5.16 nM
B13	0.4 nM	13.8 % IL-17/IL-17R binding remaining	–
B14	–	–	2.25 nM
B15	–	–	1.21 nM
B16	0.63 nM	14.2 % IL-17/IL-17R binding remaining	–
B17	–	–	0.29 nM
B18	0.64 nM	8.94 % IL-17/IL-17R binding remaining	–
B19	0.39 nM	–	–
B20	–	–	6.21 nM
B21	0.77 nM	25.3 % IL-17/IL-17R binding remaining	–
B22	–	–	0.96 nM
B23	–	–	0.81 nM
